Experimental data as given in PMC3731059.

How the values were obtained:
Experiment in all cases: FXa generation assay
[1] = biological target: FVIIIa Ala1866Cys/Ser2119Cys (thrombin-activated B domainless factor VIII variant) (UniProt P00451)
[2] = biological target: FVIIIa Arg2116Ala (thrombin-activated B domainless factor VIII variant) (UniProt P00451)
[3] = biological target: FVIIIa Arg2116Val (thrombin-activated B domainless factor VIII variant) (UniProt P00451)
[4] = biological target: FVIIIa Gly1750Cys/Arg2116Cys (thrombin-activated B domainless factor VIII variant) (UniProt P00451)
[5] = biological target: FVIIIa Ser2029Cys/Pro2292Cys (thrombin-activated B domainless factor VIII variant) (UniProt P00451)
[6] = biological target: WT FVIIIa (thrombin-activated B domainless factor VIII) (UniProt P00451)

Substance: factor IXaβ (enzyme)
- Kd [1]: 0.4 nM
- Kd [2]: 0.45 nM
- Kd [3]: 0.4 nM
- Kd [4]: 0.44 nM
- Kd [5]: 0.33 nM
- Kd [6]: 0.43 nM
